Assay results taken from patent US20200140501A1 (published 2020).

Target: T1, hNGAL lipocalin mutein SEQ ID NO: 1
T1 chain: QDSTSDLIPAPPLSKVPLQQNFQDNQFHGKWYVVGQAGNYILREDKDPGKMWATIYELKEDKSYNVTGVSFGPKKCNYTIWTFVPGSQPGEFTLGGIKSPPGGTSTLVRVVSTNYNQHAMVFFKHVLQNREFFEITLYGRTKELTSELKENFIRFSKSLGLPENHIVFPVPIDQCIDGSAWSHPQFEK
Assay: solution competition ELISA: ligand titrated against 0.1 nM SEQ ID NO: 1, free mutein captured on immobilised hAng-2
Description: In the following detailed experimental protocol, incubation and washing steps were performed as described above in the competition ELISA protocol (see Example 5).
The residual supernatants were discarded and 20 μl HRP-labeled anti-lipocalin-mutein antibody was added at a predetermined optimal concentration in PBS-T/BSA and incubated for 1 h at RT. […] After washing, 20 μl fluorogenic HRP substrate (Quantablue, Pierce) was added to each well, and the reaction was allowed to proceed for 60 minutes. The fluorescence intensity of every well on the plate was read using a Genios Plus Microplate reader (Tecan).

IC50: > 100 nM
B1: human angiopoietin-1 (Ang-1) (ligand, UniProt Q15389 20-498, looked up)
chain: SNQRRSPENSGRRYNRIQHGQCAYTFILPEHDGNCRESTTDQYNTNALQRDAPHVEPDFSSQKLQHLEHVMENYTQWLQKLENYIVENMKSEMAQIQQNAVQNHTATMLEIGTSLLSQTAEQTRKLTDVETQVLNQTSRLEIQLLENSLSTYKLEKQLLQQTNEILKIHEKNSLLEHKILEMEGKHKEELDTLKEEKENLQGLVTRQTYIIQELEKQLNRATTNNSVLQKQQLELMDTVHNLVNLCTKEGVLLKGGKREEEKPFRDCADVYQAGFNKSGIYTIYINNMPEPKKVFCNMDVNGGGWTVIQHREDGSLDFQRGWKEYKMGFGNPSGEYWLGNEFIFAITSQRQYMLRIELMDWEGNRAYSQYDRFHIGNEKQNYRLYLKGHTGTAGKQSSLILHGADFSTKDADNDNCMCKCALMLTGGWWFDACGPSNLNGMFYTAGQNHGKLNGIKWHYFKGPSYSLRSTTMMIRPLDF
notes: also called hAng-1; human Ang-1
